This is an account of results in WO2017046774A2 (dated 2017).

Where only a bound is given, the exact number is not on record here.

In assay [1] the target is T1, human MCAM C272A mutant (shotgun mutagenesis library clone, on cells) (human, UniProt P43121 24-646).
T1 construct: Expressed in BHK cells, immunodetection
T1 chain: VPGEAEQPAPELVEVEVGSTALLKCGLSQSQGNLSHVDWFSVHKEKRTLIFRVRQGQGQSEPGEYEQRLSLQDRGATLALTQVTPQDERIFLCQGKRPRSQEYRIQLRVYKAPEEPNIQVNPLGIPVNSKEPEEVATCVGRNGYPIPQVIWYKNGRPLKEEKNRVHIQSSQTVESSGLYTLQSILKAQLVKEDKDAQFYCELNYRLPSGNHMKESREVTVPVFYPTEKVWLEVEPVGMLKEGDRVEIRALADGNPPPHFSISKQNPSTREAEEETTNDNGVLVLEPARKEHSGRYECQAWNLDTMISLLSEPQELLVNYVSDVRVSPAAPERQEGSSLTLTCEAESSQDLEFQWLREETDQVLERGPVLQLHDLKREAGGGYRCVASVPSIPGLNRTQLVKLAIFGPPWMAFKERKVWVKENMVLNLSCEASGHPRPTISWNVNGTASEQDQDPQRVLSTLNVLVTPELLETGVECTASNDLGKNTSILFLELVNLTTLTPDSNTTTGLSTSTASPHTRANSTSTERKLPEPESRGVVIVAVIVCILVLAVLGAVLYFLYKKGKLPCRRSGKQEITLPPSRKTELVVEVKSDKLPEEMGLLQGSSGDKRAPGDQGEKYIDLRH
The experiment in a line: shotgun mutagenesis library, immunodetection on BHK cells, normalized to wild type MCAM.

In assay [2] the target is T2, recombinant laminin 511 (UniProt O15230 36-3695; P07942 22-1786; P11047 34-1609).
T2 construct: also called laminin 10 (α5β1γ1)
As to the kind of experiment: flow cytometry on CHO cells transfected with human MCAM, pan-laminin antibody.

B1: mouse anti-human MCAM monoclonal antibody clone 1749.1.3 (antibody, V domains shown)
VH: DVKLVESGGDLVKPGGSLKLSCAASGFTFSSYIMSWVRQTPEKRLEWVATISSGGSSTYYPDSVKGRFTISRDNAKNTLYLQMSSLKSEDTAMYYCTRDDDYDVKVFAYWGQGTLVTVSA
VL: DIVMSQSPSSLAVSAGEKVTMNCKSSRSLLNSRIRKNYLAWYQQKPGQSPKLLIYWASTRESGVPDRFTGSGSGTDFTLTISSVQAEDLAVYYCKQSYNLLTFGAGTKLELK
notes: Mouse hybridoma monoclonal antibody; also called m1749
As for B1, in assay [1], the “mean monoclonal antibody reactivity (% WT)” value was less than 30 % WT.

B2: human MCAM (full length, expressed on the surface of transfected cells) (receptor)
chain: VPGEAEQPAPELVEVEVGSTALLKCGLSQSQGNLSHVDWFSVHKEKRTLIFRVRQGQGQSEPGEYEQRLSLQDRGATLALTQVTPQDERIFLCQGKRPRSQEYRIQLRVYKAPEEPNIQVNPLGIPVNSKEPEEVATCVGRNGYPIPQVIWYKNGRPLKEEKNRVHIQSSQTVESSGLYTLQSILKAQLVKEDKDAQFYCELNYRLPSGNHMKESREVTVPVFYPTEKVWLEVEPVGMLKEGDRVEIRCLADGNPPPHFSISKQNPSTREAEEETTNDNGVLVLEPARKEHSGRYECQAWNLDTMISLLSEPQELLVNYVSDVRVSPAAPERQEGSSLTLTCEAESSQDLEFQWLREETDQVLERGPVLQLHDLKREAGGGYRCVASVPSIPGLNRTQLVKLAIFGPPWMAFKERKVWVKENMVLNLSCEASGHPRPTISWNVNGTASEQDQDPQRVLSTLNVLVTPELLETGVECTASNDLGKNTSILFLELVNLTTLTPDSNTTTGLSTSTASPHTRANSTSTERKLPEPESRGVVIVAVIVCILVLAVLGAVLYFLYKKGKLPCRRSGKQEITLPPSRKTELVVEVKSDKLPEEMGLLQGSSGDKRAPGDQGEKYIDLRH
notes: also called CD146; MUC18
B2: the binding result in assay [2] is listed as “no binding (tested: 10 μg/ml)”.
